Test results published in paper PMC13086964, “USP7 deubiquitinase stabilizes FAN1 to support DNA crosslink repair and suppress CAG repeat expansion” (Nature Communications, 2026).

Molecular target: USP7 TRAF domain (residues 2-207), biotinylated (UniProt Q93009)
Assay: fluorescence polarisation
Conditions: read at the highest USP7-TRAF concentration, about 190 µM; parent: est. 100; read off a plot

Sequence of USP7 TRAF domain (residues 2-207), biotinylated (Q93009 2-207): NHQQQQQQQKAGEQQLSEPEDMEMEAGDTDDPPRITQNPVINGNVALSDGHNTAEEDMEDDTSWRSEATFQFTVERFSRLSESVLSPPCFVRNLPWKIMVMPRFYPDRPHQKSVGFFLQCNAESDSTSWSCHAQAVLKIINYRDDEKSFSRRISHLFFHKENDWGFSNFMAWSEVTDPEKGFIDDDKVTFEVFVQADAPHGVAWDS

Row | response (% (normalized FP)) | Substance
1 | 100 | FITC-labelled FAN1-derived 8mer peptide, wild-type (181-PQSS-184 region) P181A
2 | 99 | FITC-labelled FAN1-derived 8mer peptide, wild-type (181-PQSS-184 region) Q182A
3 | 30 | FITC-labelled FAN1-derived 8mer peptide, wild-type (181-PQSS-184 region) S184A
